# In IntAct's records for PubMed 23559067:
# B1: X-linked retinitis pigmentosa GTPase regulator (Homo sapiens), Q92834 (parent)
# chain: MREPEELMPDSGAVFTFGKSKFAENNPGKFWFKNDVPVHLSCGDEHSAVVTGNNKLYMFGSNNWGQLGLGSKSAISKPTCVKALKPEKVKLAACGRNHTLVSTEGGNVYATGGNNEGQLGLGDTEERNTFHVISFFTSEHKIKQLSAGSNTSAALTEDGRLFMWGDNSEGQIGLKNVSNVCVPQQVTIGKPVSWISCGYYHSAFVTTDGELYVFGEPENGKLGLPNQLLGNHRTPQLVSEIPEKVIQVACGGEHTVVLTENAVYTFGLGQFGQLGLGTFLFETSEPKVIENIRDQTISYISCGENHTALITDIGLMYTFGDGRHGKLGLGLENFTNHFIPTLCSNFLRFIVKLVACGGCHMVVFAAPHRGVAKEIEFDEINDTCLSVATFLPYSSLTSGNVLQRTLSARMRRRERERSPDSFSMRRTLPPIEGTLGLSACFLPNSVFPRCSERNLQESVLSEQDLMQPEEPDYLLDEMTKEAEIDNSSTVESLGETTDILNMTHIMSLNSNEKSLKLSPVQKQKKQQTIGELTQDTALTENDDSDEYEEMSEMKEGKACKQHVSQGIFMTQPATTIEAFSDEEVGNDTGQVGPQADTDGEGLQKEVYRHENNNGVDQLDAKEIEKESDGGHSQKESEAEEIDSEKETKLAEIAGMKDLREREKSTKKMSPFFGNLPDRGMNTESEENKDFVKKRESCKQDVIFDSERESVEKPDSYMEGASESQQGIADGFQQPEAIEFSSGEKEDDEVETDQNIRYGRKLIEQGNEKETKPIISKSMAKYDFKCDRLSEIPEEKEGAEDSKGNGIEEQEVEANEENVKVHGGRKEKTEILSDDLTDKAEDHEFSKTEELKLEDVDEEINAENVESKKKTVGDDESVPTGYHSKTEGAERTNDDSSAETIEKKEKANLEERAICEYNENPKGYMLDDADSSSLEILENSETTPSKDMKKTKKIFLFKRVPSINQKIVKNNNEPLPEIKSIGDQIILKSDNKDADQNHMSQNHQNIPPTNTERRSKSCTIL
# B2: Retinal rod rhodopsin-sensitive cGMP 3',5'-cyclic phosphodiesterase subunit delta (Homo sapiens), O43924 (parent)
# chain: MSAKDERAREILRGFKLNWMNLRDAETGKILWQGTEDLSVPGVEHEARVPKKILKCKAVSRELNFSSTEQMEKFRLEQKVYFKGQCLEEWFFEFGFVIPNSTNTWQSLIEAAPESQMMPASVLTGNVIIETKFFDDDLLVSTSRVRLFYV
# partner: B1 chain
# Variants of: B1
# Conditions: with pde6d_human PDE6D, O43924
row,effect of a mutation on the interaction,Variant
1,disrupting interaction,E216R

# Variants of: B2
# Conditions: with rpgr_human RPGR, Q92834
row,effect of a mutation on the interaction,Variant
1,disrupting interaction,R48E
